The text below walks through data of PMC10799931, “Cryo- EM structure of the mycobacterial 70S ribosome in complex with ribosome hibernation promotion factor RafH” (Nature Communications, 2024).

Sequences and labels used below:
B1: ribosomal protein uS2, M. smegmatis (natural protein, UniProt A0QVB8 1-277, looked up)
chain: MAVVTMKQLLDSGAHFGHQTRRWNPKMKRFIFTDRNGIYIIDLQQTLTYIDKAYEFVKETVAHGGTVLFVGTKKQAQESIAEEATRVGMPYVNQRWLGGMLTNFSTVHKRLQRLKELEAMEQTGGFEGRTKKEILMLTREKNKLERSLGGIRDMQKVPSAVWVVDTNKEHIAVGEARKLGIPVIAILDTNCDPDVVDYPIPGNDDAIRSAALLTKVIASAVAEGLQARAGQGSGEKPAEGAEPLAEWEQELLAGATAGAADASAEGAAAPESSTDAS
notes: ribosomal protein uS2 of M. smegmatis; Stood in the assay as a part of the 70S ribosome; also called uS2 r-protein; source: endogenous, in ribosomes purified from M. smegmatis MC2 155
B2: RafH (ribosome associated factor under hypoxia), M. smegmatis (natural protein, UniProt A0QZ86 1-258, looked up)
chain: MDVDVSTDGELPGAAEYAREKIGRLSRRAHRPVLHARVRLTRHGDPAVERPVIAQANLDVNGRQVRAQVEGVNAREAVDRLEARLRSRLERIAEHWEARRGGVPAEAGREWRHESEPARRPGYFPRPPEERRIIRRKSFSMVPCTVDEAALEMEMLDYDFHLFTEKGTGFAAVLYKGGPTGYRLVLVIPVPADELSPFEKPITISTHPAPCLTQRDAVERLGLLGLPFLFYIDAAEGRASVIYRRYDGHYGLITPADG
notes: RafH of M. smegmatis, gene MSMEG_3935, 258 amino acid residues (~30 kDa): NTD 1-100, linker 101-130, CTD 131-258; gene synthesised (GenScript) and cloned in pET-28a(+); the methods say only that the gene MSMEG_3935 was cloned; also called MSMEG_3935; source: E. coli C41(DE3), purified (Ni-NTA, size-exclusion chromatography)
B3: ribosomal protein uS11, M. smegmatis (natural protein)
chain: not shown
notes: ribosomal protein uS11 of M. smegmatis; Stood in the assay as a part of the 70S ribosome; also called uS11 r-protein; source: endogenous, in ribosomes purified from M. smegmatis MC2 155
B4: ribosomal protein uS9, M. smegmatis (natural protein, UniProt A0QSP9 1-150, looked up)
chain: MTDVTETEVVTESAEPREPVIIDRPIQTVGRRKEAVVRVRLVPGTGQFNLDGRTLENYFPNKVHQQLIKAPLVTVDRVDQFDIYAHLDGGGPSGQAGALRLAIARALILVQPEDRPALKKAGFLTRDPRAIERKKYGLKKARKAPQYSKR
notes: ribosomal protein uS9 of M. smegmatis; C-terminal residue R150; Stood in the assay as a part of the 70S ribosome; also called r-protein uS9; source: endogenous, in ribosomes purified from M. smegmatis MC2 155

For assay [1], the target named is T1, bacterial ribosomal protein bS1, M. smegmatis (M. smegmatis, UniProt A0QYY6 1-479).
T1 construct: ribosomal protein bS1 of M. smegmatis; only the two N-terminal domains OB1 and OB2 are visible in the map, the rest is disordered; Stood in the assay as a part of the 70S ribosome; the model was begun from AlphaFold2 and docked in the map; also called bS1 r-protein; source: endogenous, in ribosomes purified from M. smegmatis MC2 155
T1 sequence (looked up): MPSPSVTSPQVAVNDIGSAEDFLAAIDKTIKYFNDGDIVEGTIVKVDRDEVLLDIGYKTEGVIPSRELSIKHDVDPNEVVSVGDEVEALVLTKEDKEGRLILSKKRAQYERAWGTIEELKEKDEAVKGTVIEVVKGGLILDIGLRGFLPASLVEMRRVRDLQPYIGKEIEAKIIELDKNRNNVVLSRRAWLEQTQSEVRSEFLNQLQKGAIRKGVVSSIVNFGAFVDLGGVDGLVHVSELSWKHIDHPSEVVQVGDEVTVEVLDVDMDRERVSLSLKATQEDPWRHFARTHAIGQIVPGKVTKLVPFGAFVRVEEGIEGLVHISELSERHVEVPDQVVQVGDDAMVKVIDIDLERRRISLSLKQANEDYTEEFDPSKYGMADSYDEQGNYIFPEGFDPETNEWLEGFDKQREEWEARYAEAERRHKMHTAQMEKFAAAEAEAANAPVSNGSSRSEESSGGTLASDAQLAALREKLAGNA
The assay is described as follows: cryo-EM structure; single particle cryo-EM of the in-vitro reconstituted 70S ribosome RafH complex (Titan Krios 300 kV, Falcon 3, Relion 3.1.4); overall 2.8 Å; maps with bS1 or E-site tRNA low pass filtered to 3.5 Å. The note with it: both partners purified.

Assay [2] has as its target B2. The assay is described as above. The settings on record: both partners purified.

As for B1, the binding result in assay [1] was “binds”.
Still for that read-out and setting: with B2 the entry was “binds”.
B3: the binding result in assay [2] is recorded as “binds”.
For B4, in assay [2], the binding result was “binds”.
